Measurements as given in US6734342B2, “Theobromine synthase polypeptide of coffee plant and the gene encoding said polypeptide” (Nara Institute of Science and Technology, priority 2000, dated 2004).

B1: SEQ.ID. NO: 3: Coffea arabica polypeptide homologous to MXMT1, encoded by clone #1 cDNA (SEQ ID NO: 4) (protein, listed as Caffea arabica)
chain: MELQEVLHMNGGEGEASYAKNSSFNQLVLAKVKPVLEQCVRELLRANLPNINKCIKVADLGCASGPNTLLTVWDTVQSIDKVKQEMKNELERPTIQVFLTDLFQNDFNSVFMLLPSFYRKLEKENGRKIGSCLIAAMPGSFHGRLFPEESMHFLHSSYSLQFLSQVPSGLVTELGITANKRSIYSSKASPPPVQKAYLDQFTKDFTTFLRMRSEELLSRGRMLLTCICKGDECDGPNTMDLLEMAINDLVAEGRLGEEKLDSFNVPIYTASVEEVKCMVEEEGSFEILYLQTFKLRYDAGFSIDDDCQVRSHSPVYSDEHARAAHVASLIRSVYEPILASHFGEAIIPDIFHRFATNAAKVIRLGKGFYNNLIISLAKKPEKSDI
B2: MTL3: Coffea arabica polypeptide homologous to MXMT1, encoded by clone #35 cDNA (SEQ ID NO: 8) (protein, listed as Caffea arabica)
chain: MELQEVLRMNGGEGDTSYAKNSAYNQLVLAKVKPVLEQCVRELLRANLPNINKCIKVADLGCASGPNTLLTVRDIVQSIDKVGQEKKNELERPTIQIFLNDLFPNDFNSVFKLLPSFYRKLEKENGRKIGSCLIGAMPGSFYSRLFPEESMHFLHSCYCLQWLSQVPSGLVTELGISTNKGSIYSSKASRLPVQKAYLDQFTKDFTTFLRIHSEELFSHGRMLLTCICKGVELDARNAIDLLEMAINDLVVEGHLEEEKLDSFNLPVYIPSAEEVKCIVEEEGSFEILYLETFKVLYDAGFSIDDEHIKAEYVASSVRAVYEPILASHFGEAIIPDIFHRFAKHAAKVLPLGKGFYNNLIISLAKKPEKSDV
B3: MTL2: Coffea arabica polypeptide homologous to MXMT1, encoded by clone #6 cDNA (SEQ ID NO: 6) (protein, listed as Caffea arabica)
chain: MELQEVLHMNGGEGDASYAKNSSFNQLVLAKVKPVLEQCVGELLRANLPNINKCIKVADLGCASGPNTLLTVRDIVQSIDDVRQEMKNELERPTIQVFLTDLFQNDFNSVFMLLPSFYRKLEKENGRKIGSCLIAAMPGSFHGRLFPEESMHFLHSSYSLQFLSQVPSGLVTELGITANKRSIYSSKASPPPVQKAYLDQFTKDFTTFLRIRSEELLSRGRMLLTCICKGDEFDGPNTMDLLEMAINDLVVEGHLEEEKLDSFNVPIYAASVEELKCIVEEEGSFEILYLETFKLRYDAGFSIDDDCQVRSHSPEYSDEHARAAHVASLLRSVYEPILANHFGEAIIPDIFHRFATNAAKVIRLGKGFYNNLIISLAKKPEKSDI
B4: MXMT1: theobromine synthase polypeptide of Coffea arabica, amino acids 1 to 378 of SEQ ID NO: 1, expressed in E. coli as GST fusion (protein, listed as Caffea arabica)
chain: MELQEVLHMNEGEGDTSYAKNASYNLALAKVKPFLEQCIRELLRANLPNINKCIKVADLGCASGPNTLLTVRDIVQSIDKVGQEEKNELERPTIQIFLNDLFQNDFNSVFKLLPSFYRKLEKENGRKIGSCLISAMPGSFYGRLFPEESMHFLHSCYSVHWLSQVPSGLVIELGIGANKGSIYSSKGCRPPVQKAYLDQFTKDFTTFLRIHSKELFSRGRMLLTCICKVDEFDEPNPLDLLDMAINDLIVEGLLEEEKLDSFNIPFFTPSAEEVKCIVEEEGSCEILYLETFKAHYDAAFSIDDDYPVRSHEQIKAEYVASLIRSVYEPILASHFGEAIMPDLFHRLAKHAAKVLHMGKGCYNNLIISLAKKPEKSDV

Experiments:
[1] = Measurement of enzymatic (methyl transferase) activity of GST fusion proteins by thin layer chromatography; type: biochemical; details: for activity as theobromine synthase: polypeptides with higher than 80% homology to SEQ.ID. NO: 1; for activity as a methyl transferase: substrates xanthine, 7-methylxanthine, theobromine, paraxanthine, theophylline, 200 μM each
Procedure: The open reading frame regions of MTL1 (Clone #1), MTL2 (Clone #6), MTL3 (Clone #35) and MXMT1 (Clone #45) were amplified by PCR (polymerase chain reaction). Then, they were optionally cloned into pGEX 4T-2 vector (Pharmacia) and E. coli (JM109) cells were transformed with the resulting plasmids. The obtained E. coli cells were cultured in LB liquid medium containing ampicillin. When OD600 of the culture reached to 0.5, IPTG (isopropyl thio-β-D-galactoside) was added to it and the final concentration of IPTG was made to 1 mM, then the mixture was further cultured at 16° C. for 6 hours. E. coli was desrupted by a sonicator and the protein of the purpose was purified by glutathione Sepharose 4B as a GST (glutathione S-transferase) fusion protein. Concentration of the protein was measured by the Bradford method. Each of the GST fusion protein (500 ng) was separated by SDS-PAGE (sodium dodecyl sulfate polyacrylamide gel electro-phoresis), then it was stained by CBB (coumasie Brilliant Blue) to confirm purification.
Measurement of enzymatic activity was performed using thin layer chromatography (TLC), based on the method of Kato et al. (Plant Physiol., 1996, 98, 629-636). In concrete, the reaction mixture of 100 μl, containing 100 mM Tris-HCl (pH 7.5), 200 μM substrate (xanthine, 7-methylxanthine, theobromine, paraxanthine, theophylline), 4 μM ^14C-labeled S-adenosylmethionine, 200 μM MgCl2, 200 ng GST fusion protein, was incubated at 27° C. for 2 hours. After the reaction, the resulting mixture was extracted with 1 ml of chloroform, the chloroform layer was recovered, then chloroform was evaporated by speed back concentrator. The residue was dissolved in 5 μl of 50% methanol solution, then the solution was developed by TLC (solvent for development was water:acetic acid:n-butanol=2:1:4, v/v/v). After the development, signal of radio activity was detected by image analyzer (Fuji BAS 2000). The result of enzymatic activity, which was measured on the fusion proteins derived from MTL2, MTL3 and MXMT1 using xanthine (X), 7-methylxanthine (7-Mx), theobromine (Tb), paraxanthine (Px) and theophylline (Tp) as the substrate, was shown in FIG. 5.

[2] = Enzymatic activity measurement and identification of the reaction product by HPLC; type: biochemical; details: 200 μM 7-methylxanthine, 50 μM S-adenosylmethionine, 200 ng GST fusion protein, 27° C., 2 hours; UV 254 nm (FIG. 6)
Procedure: Using high performance liquid chromatography (HPLC), enzymatic activity of the MXMT1 fusion protein was measured and reaction product obtained from the enzymatic reaction was identified. The reaction mixture of 100 μl, containing 100 mM Tris-HCl (pH 7.5), 200 μM of substrate (7-methylxanthine, paraxanthine, theobromine), 50 μM of S-adenosylmethionine, 200 μM of MgCl2, 200 ng of GST fusion protein, was incubated at 27° C. for 2 hours. After incubation, the mixture was extracted with 1 ml of chloroform, the chloroform layer was recovered, then chloroform was evaporated by a speed back concentrator. The residue was dissolved in 50 μl of 12% acetonitrile. Then the solution was fractionated by HPLC (Shodex Rspak DS-613 column) provided with UV detection system. As the solution for development, 12% acetonitrile was used and the signal was detected for absorbance of 254 nm.
The MXMT1 fusion protein was reacted with S-adenosylmethionine and 7-methylxanthine, which is the substrate and the reaction product was analyzed by HPLC. […] Furthermore, S-adenosylmethionine and 7-methylxanthine was reacted with MXMT1 fusion protein and then theobromine was added to the reaction mixture. The peak position of the reaction product detected in FIG. 6A coincided with the position of theobromine, which was analyzed as the standard compound. […]

| Molecule | activity as theobromine synthase [1] | activity as a methyl transferase ([1]; TLC (FIG. 5)) | reaction product identified by HPLC [2] | activity to synthesize theobromine, using 7-methylxanthine as the substrate ([1]; 200 μM 7-methylxanthine, 4 μM 14C-S-adenosylmethionine, 200 ng GST fusion protein, 27° C., 2 hours, TLC (FIG. 5)) | relative activity to synthesize caffeine, using paraxanthine as the substrate ([1]; 200 μM paraxanthine, relative to the activity with 7-methylxanthine, TLC (FIG. 5)) [%] |
| --- | --- | --- | --- | --- | --- |
| B1 | did not exhibit activity as theobromine synthase |  |  |  |  |
| B2 | did not exhibit activity as theobromine synthase | did not exhibit activity as a methyl transferase |  |  |  |
| B3 | did not exhibit activity as theobromine synthase | did not exhibit activity as a methyl transferase |  |  |  |
| B4 |  |  | theobromine was formed | potent activity to synthesize theobromine | 15 |
